Assay [1] addresses Recombinant human laminin‐332 (human) (UniProt Q16787). The experiment in a line: SPR; BIAcore 3000, 25 °C; laminin-332 immobilised on a CM5 chip (approx. 5000 RU); vWFA2 as analyte, 2.5-420 µM; running buffer 10 mM sodium phosphate pH 7.4, 150 mM NaCl; binding isotherms. For orientation: In SPR one partner is held on a chip, and binding of the other changes the refractive index at the surface.

The target is the same in assay [2]. Put plainly: SPR; as a1, with MgCl2 added to the running buffer to 2.5 mM.

By Kd is commonly meant the free concentration of one partner at which half of the binding sites on the other are occupied at equilibrium, for simple one-to-one binding.

For the substance “untagged vWFA2 (vWFA2 lacking any tag residues) of murine type VII collagen (from UniProt Q63870 1048-1238) (domain or fragment)”, in assay [1], the Kd came out at 440 µM.

With “vWFA2 subdomain (amino acids 1048–1238) of murine type VII collagen, purified by intein cleavage (from UniProt Q63870 1048-1238) (domain or fragment)”, the dissociation constant Kd in assay [1] came out at 810 µM; in assay [2], 1100 µM.
